Columns and labels:
[1] = target: T1, C3b (UniProt P01024 23-667; P01024 749-1663, limits assumed); test: SPR (Biacore T200), C3b amine-coupled to CM5 chip, FH alone injected (10-0.01953 µM), 37 °C, equilibrium analysis; FH alone, no Fab′
T1 construct: C3b has two chains (beta and alpha') derived from C3; also called purified C3b (Complement Technologies)
Protocol: (§1) Binding of FH to C3b in the presence of the anti-FH moAbs was determined by surface plasmon resonance using a Biacore T200 instrument (GE Healthcare, Little Chalfont, UK). Purified C3b (Complement Technologies) was immobilized onto a flow cell of a CM5 Biacore Sensor Chip (GE Healthcare) using standard amine coupling. The remaining flow cell was used as reference surface and prepared by performing a coupling reaction without the addition of any protein. A response of 2000 response units (RUs) was obtained after coupling with C3b. SPR experiments were performed at 37° C. using a flow rate of 10 μl/min and in phosphate buffered saline pH 7.4 (PBS, Orphi Farma) supplemented with 0.01% (w/v) Tween-20 (Merck) (PBS-T).
(§2) To determine the effect of the antibodies without interference of possible cross-linking via the moAb, recombinantly produced Fab′ fragments of the moAbs were used. Fab′ fragments were mixed with plasma purified FH (pdFH). […] Each Fab′ fragment was also injected without addition of FH to determine any interactions of the Fab′ fragments with the surfaces. The pdFH injection was followed by a dissociation of 60 seconds and surface was regenerated between each cycle by a single injection of 1 M NaCl (Merck).
(§3) Data was analyzed using Scrubber 2 (Biologic Software) affinities were determined by equilibrium analysis.

[2] = target: T1, C3b; test: SPR on immobilised C3b, equilibrium analysis, FH with Fab′ against FH alone
Protocol: as §1, §2

[3] = target: T1, C3b; test: SPR, C3b amine-coupled to CM5 chip, FH (5-0.01953 µM) injected with 10 µM anti-FHR-1 3B4 Fab′, equilibrium analysis; FH with anti-FHR-1 3B4 Fab′
Protocol: as §1, §2, §3

[4] = target: T1, C3b; test: SPR on immobilised C3b, FH with Fab′ against FH alone
Protocol: as §1, §2

[5] = target: T1, C3b; test: SPR, C3b amine-coupled to CM5 chip, FH (5-0.01953 µM) injected with 10 µM anti-FH.07 Fab′, equilibrium analysis; FH with anti-FH.07 Fab′
Protocol: as §1, §2, §3

T1 sequence (P01024 23-667 limits assumed, chain 1 of 2): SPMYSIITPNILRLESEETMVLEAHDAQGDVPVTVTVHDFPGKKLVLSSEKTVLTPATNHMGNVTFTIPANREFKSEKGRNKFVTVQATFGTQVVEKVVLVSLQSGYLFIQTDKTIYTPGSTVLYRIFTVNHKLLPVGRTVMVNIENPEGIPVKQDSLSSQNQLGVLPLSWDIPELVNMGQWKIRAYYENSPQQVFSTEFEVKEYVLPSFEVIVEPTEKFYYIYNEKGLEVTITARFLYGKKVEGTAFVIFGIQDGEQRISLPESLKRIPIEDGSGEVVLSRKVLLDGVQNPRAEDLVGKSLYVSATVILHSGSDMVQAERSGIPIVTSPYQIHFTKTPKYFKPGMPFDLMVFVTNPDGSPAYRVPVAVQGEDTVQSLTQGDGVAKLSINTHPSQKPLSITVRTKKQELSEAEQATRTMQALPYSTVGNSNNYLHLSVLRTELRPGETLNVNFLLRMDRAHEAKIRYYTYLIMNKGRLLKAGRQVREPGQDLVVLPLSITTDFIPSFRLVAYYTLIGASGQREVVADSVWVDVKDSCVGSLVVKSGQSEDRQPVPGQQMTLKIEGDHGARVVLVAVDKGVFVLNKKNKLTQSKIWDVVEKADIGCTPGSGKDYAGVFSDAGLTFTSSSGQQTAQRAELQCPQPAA
T1 sequence (P01024 749-1663 limits assumed, chain 2 of 2): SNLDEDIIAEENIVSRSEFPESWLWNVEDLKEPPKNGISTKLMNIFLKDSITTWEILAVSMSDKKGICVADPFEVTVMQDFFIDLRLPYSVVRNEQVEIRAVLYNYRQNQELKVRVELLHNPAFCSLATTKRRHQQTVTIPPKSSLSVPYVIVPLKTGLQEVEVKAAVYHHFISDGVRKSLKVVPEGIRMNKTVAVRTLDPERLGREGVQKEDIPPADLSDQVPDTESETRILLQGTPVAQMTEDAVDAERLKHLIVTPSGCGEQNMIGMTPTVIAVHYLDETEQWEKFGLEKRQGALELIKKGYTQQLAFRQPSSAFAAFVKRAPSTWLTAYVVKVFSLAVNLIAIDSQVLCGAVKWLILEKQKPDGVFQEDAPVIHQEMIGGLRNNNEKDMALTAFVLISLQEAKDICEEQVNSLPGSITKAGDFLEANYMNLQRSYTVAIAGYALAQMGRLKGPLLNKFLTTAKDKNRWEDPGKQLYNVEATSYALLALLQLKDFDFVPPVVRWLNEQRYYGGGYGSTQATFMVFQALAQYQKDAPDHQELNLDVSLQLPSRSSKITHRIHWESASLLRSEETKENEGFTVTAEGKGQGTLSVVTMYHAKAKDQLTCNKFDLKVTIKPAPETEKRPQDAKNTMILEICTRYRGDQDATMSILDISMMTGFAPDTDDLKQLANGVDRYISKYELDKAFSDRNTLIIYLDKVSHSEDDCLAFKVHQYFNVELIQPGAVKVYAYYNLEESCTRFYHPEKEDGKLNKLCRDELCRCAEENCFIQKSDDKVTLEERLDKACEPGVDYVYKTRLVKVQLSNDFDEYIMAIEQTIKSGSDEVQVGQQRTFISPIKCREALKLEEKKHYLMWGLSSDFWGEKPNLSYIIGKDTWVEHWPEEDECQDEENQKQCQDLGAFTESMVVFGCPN

Row | Binder | Kd [1] [nM] | increase in affinity of FH for C3b against FH alone (times) [2] [times] | Kd [3] [nM] | fold increase of measured RU against FH alone [4] [fold] | Kd [5] [nM]
1 | human factor H, full length (other, UniProt P08603 19-1231, looked up, mature; In the serum assays (C3b deposition, hemolysis) the FH is that of normal human serum; also called FH; full length FH) EDCNELPPRRNTEILTGSWSDQTYPEGTQAIYKCRPGYRSLGNVIMVCRKGEWVALNPLRKCQKRPCGHPGDTPFGTFTLTGGNVFEYGVKAVYTCNEGYQLLGEINYRECDTDGWTNDIPICEVVKCLPVTAPENGKIVSSAMEPDREYHFGQAVRFVCNSGYKIEGDEEMHCSDDGFWSKEKPKCVEISCKSPDVINGSPISQKIIYKENERFQYKCNMGYEYSERGDAVCTESGWRPLPSCEEKSCDNPYIPNGDYSPLRIKHRTGDEITYQCRNGFYPATRGNTAKCTSTGWIPAPRCTLKPCDYPDIKHGGLYHENMRRPYFPVAVGKYYSYYCDEHFETPSGSYWDHIHCTQDGWSPAVPCLRKCYFPYLENGYNQNYGRKFVQGKSIDVACHPGYALPKAQTTVTCMENGWSPTPRCIRVKTCSKSSIDIENGFISESQYTYALKEKAKYQCKLGYVTADGETSGSITCGKDGWSAQPTCIKSCDIPVFMNARTKNDFTWFKLNDTLDYECHDGYESNTGSTTGSIVCGYNGWSDLPICYERECELPKIDVHLVPDRKKDQYKVGEVLKFSCKPGFTIVGPNSVQCYHFGLSPDLPICKEQVQSCGPPPELLNGNVKEKTKEEYGHSEVVEYYCNPRFLMKGPNKIQCVDGEWTTLPVCIVEESTCGDIPELEHGWAQLSSPPYYYGDSVEFNCSESFTMIGHRSITCIHGVWTQLPQCVAIDKLKKCKSSNLIILEEHLKNKKEFDHNSNIRYRCRGKEGWIHTVCINGRWDPEVNCSMAQIQLCPPPPQIPNSHNMTTTLNYRDGEKVSVLCQENYLIQEGEEITCKDGRWQSIPLCVEKIPCSQPPQIEHGTINSSRSSQESYAHGTKLSYTCEGGFRISEENETTCYMGKWSSPPQCEGLPCKSPPEISHGVVAHMSDSYQYGEEVTYKCFEGFGIDGPAIAKCLGEKWSHPPSCIKTDCLSLPSFENAIPMGEKKDVYKAGEQVTYTCATYYKMDGASNVTCINSRWTGRPTCRDTSCVNPPTVQNAYIVSRQMSKYPSGERVRYQCRSPYEMFGDEEVMCLNGNWTEPPQCKDSTGKCGPPPPIDNGDITSFPLSVYAPASSVEYQCQNLYQLEGNKRITCRNGQWSEPPKCLHPCVISREIMENYNIALRWTAKQKLYSRTGESVEFVCKRGYRLSSRSHTLRTTCWDGKLEYPTCAKR | 6000 | – | – | – | –
2 | FH complexed with anti-FHR-1 3B4 Fab′ fragment (other, human, mature; also called FH in presence of 10 µM anti-FHR-1 3B4 Fab′) EDCNELPPRRNTEILTGSWSDQTYPEGTQAIYKCRPGYRSLGNVIMVCRKGEWVALNPLRKCQKRPCGHPGDTPFGTFTLTGGNVFEYGVKAVYTCNEGYQLLGEINYRECDTDGWTNDIPICEVVKCLPVTAPENGKIVSSAMEPDREYHFGQAVRFVCNSGYKIEGDEEMHCSDDGFWSKEKPKCVEISCKSPDVINGSPISQKIIYKENERFQYKCNMGYEYSERGDAVCTESGWRPLPSCEEKSCDNPYIPNGDYSPLRIKHRTGDEITYQCRNGFYPATRGNTAKCTSTGWIPAPRCTLKPCDYPDIKHGGLYHENMRRPYFPVAVGKYYSYYCDEHFETPSGSYWDHIHCTQDGWSPAVPCLRKCYFPYLENGYNQNYGRKFVQGKSIDVACHPGYALPKAQTTVTCMENGWSPTPRCIRVKTCSKSSIDIENGFISESQYTYALKEKAKYQCKLGYVTADGETSGSITCGKDGWSAQPTCIKSCDIPVFMNARTKNDFTWFKLNDTLDYECHDGYESNTGSTTGSIVCGYNGWSDLPICYERECELPKIDVHLVPDRKKDQYKVGEVLKFSCKPGFTIVGPNSVQCYHFGLSPDLPICKEQVQSCGPPPELLNGNVKEKTKEEYGHSEVVEYYCNPRFLMKGPNKIQCVDGEWTTLPVCIVEESTCGDIPELEHGWAQLSSPPYYYGDSVEFNCSESFTMIGHRSITCIHGVWTQLPQCVAIDKLKKCKSSNLIILEEHLKNKKEFDHNSNIRYRCRGKEGWIHTVCINGRWDPEVNCSMAQIQLCPPPPQIPNSHNMTTTLNYRDGEKVSVLCQENYLIQEGEEITCKDGRWQSIPLCVEKIPCSQPPQIEHGTINSSRSSQESYAHGTKLSYTCEGGFRISEENETTCYMGKWSSPPQCEGLPCKSPPEISHGVVAHMSDSYQYGEEVTYKCFEGFGIDGPAIAKCLGEKWSHPPSCIKTDCLSLPSFENAIPMGEKKDVYKAGEQVTYTCATYYKMDGASNVTCINSRWTGRPTCRDTSCVNPPTVQNAYIVSRQMSKYPSGERVRYQCRSPYEMFGDEEVMCLNGNWTEPPQCKDSTGKCGPPPPIDNGDITSFPLSVYAPASSVEYQCQNLYQLEGNKRITCRNGQWSEPPKCLHPCVISREIMENYNIALRWTAKQKLYSRTGESVEFVCKRGYRLSSRSHTLRTTCWDGKLEYPTCAKR VH: QVQLRQSGPGLVQPSQSLSITCTVSGFSLTNYGVYWVRQSPGKGLEWLGVIWSGGTTDYSAAFISRLSISKDNSKSQVFFKMNSLQADDTAIYYCARNFGNYAMDYWGQGTSVTVSS VL: QIVLSQSPTILSASPGEKVTMTCRASSSVTYMHWYQQKPGSSPKPWIYATSNLASGVPARFSGSGSGTSYSLTISRVEAEDAATYYCQQRSSSNPLTFGAGTKLELK | – | 3.2 | 1900 | ≥ 2 | –
3 | FH complexed with anti-FH.07 Fab′ fragment (other, human, mature; also called FH in presence of 10 µM anti-FH.07 Fab′) EDCNELPPRRNTEILTGSWSDQTYPEGTQAIYKCRPGYRSLGNVIMVCRKGEWVALNPLRKCQKRPCGHPGDTPFGTFTLTGGNVFEYGVKAVYTCNEGYQLLGEINYRECDTDGWTNDIPICEVVKCLPVTAPENGKIVSSAMEPDREYHFGQAVRFVCNSGYKIEGDEEMHCSDDGFWSKEKPKCVEISCKSPDVINGSPISQKIIYKENERFQYKCNMGYEYSERGDAVCTESGWRPLPSCEEKSCDNPYIPNGDYSPLRIKHRTGDEITYQCRNGFYPATRGNTAKCTSTGWIPAPRCTLKPCDYPDIKHGGLYHENMRRPYFPVAVGKYYSYYCDEHFETPSGSYWDHIHCTQDGWSPAVPCLRKCYFPYLENGYNQNYGRKFVQGKSIDVACHPGYALPKAQTTVTCMENGWSPTPRCIRVKTCSKSSIDIENGFISESQYTYALKEKAKYQCKLGYVTADGETSGSITCGKDGWSAQPTCIKSCDIPVFMNARTKNDFTWFKLNDTLDYECHDGYESNTGSTTGSIVCGYNGWSDLPICYERECELPKIDVHLVPDRKKDQYKVGEVLKFSCKPGFTIVGPNSVQCYHFGLSPDLPICKEQVQSCGPPPELLNGNVKEKTKEEYGHSEVVEYYCNPRFLMKGPNKIQCVDGEWTTLPVCIVEESTCGDIPELEHGWAQLSSPPYYYGDSVEFNCSESFTMIGHRSITCIHGVWTQLPQCVAIDKLKKCKSSNLIILEEHLKNKKEFDHNSNIRYRCRGKEGWIHTVCINGRWDPEVNCSMAQIQLCPPPPQIPNSHNMTTTLNYRDGEKVSVLCQENYLIQEGEEITCKDGRWQSIPLCVEKIPCSQPPQIEHGTINSSRSSQESYAHGTKLSYTCEGGFRISEENETTCYMGKWSSPPQCEGLPCKSPPEISHGVVAHMSDSYQYGEEVTYKCFEGFGIDGPAIAKCLGEKWSHPPSCIKTDCLSLPSFENAIPMGEKKDVYKAGEQVTYTCATYYKMDGASNVTCINSRWTGRPTCRDTSCVNPPTVQNAYIVSRQMSKYPSGERVRYQCRSPYEMFGDEEVMCLNGNWTEPPQCKDSTGKCGPPPPIDNGDITSFPLSVYAPASSVEYQCQNLYQLEGNKRITCRNGQWSEPPKCLHPCVISREIMENYNIALRWTAKQKLYSRTGESVEFVCKRGYRLSSRSHTLRTTCWDGKLEYPTCAKR VH: QVQLQQSGPGLVQPSQSLSITCTVSDFSLARYGVHWIRQSPGKGLEWLGVIWSGGTADYNAAFISRLNINKDNSKSQVFFKMNSLQANDTAIYYCARNFGNYAVDYWGQGTS VL: QIVLSQSPTFLSASPGEKVTVTCRASSSVKYMHWYQQKPGASPKPWIFATSNLASGVPARFSGSGSGTSYSLTISRVEAEDAATYYCQQWSIIPPTFGNGTKLELK | – | 2.7 | – | ≥ 2 | 2200
